The results in this text go back to patent US20160207996A1 (ARGEN X N V, published 2016).

Numbering of substitutions follows the chain as printed.

T1: hNav1.7-loopA3-llama Fc fusion (human)
T1 construct: also called hNav1.7-loopA3-llFc; loopA3-llamaFc chimera
T1 chain: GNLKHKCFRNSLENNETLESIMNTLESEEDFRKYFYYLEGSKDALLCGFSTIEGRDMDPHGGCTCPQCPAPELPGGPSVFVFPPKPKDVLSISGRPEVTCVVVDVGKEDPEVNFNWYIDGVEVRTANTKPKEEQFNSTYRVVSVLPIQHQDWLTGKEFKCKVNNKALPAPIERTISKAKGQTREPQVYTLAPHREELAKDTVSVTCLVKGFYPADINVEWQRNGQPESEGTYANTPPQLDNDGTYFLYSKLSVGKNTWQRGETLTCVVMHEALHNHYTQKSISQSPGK

B1: 4F6 (antibody, human IgG1, V domains shown)
VH: QLQLVESGGGLVQPGGSLRLSCAASGFTFDDYAMSWVRQAPGKGLEWVSAISWNGGSTYYAESMKGRFTISRDNAKNTLYLQMNSLKSKDTAVYYCARRRYGLGSEYDYWGQGTQVTVSS
VL: HSAVTQPSAVSVSLGQTARITCQGTNLRSSYVHWYQQMPGQAPVLVIYRDSERPSGIPERFSGSSSGGTATLAISGAQAEDEADYYCQSAHRSESAVFGGGTHLTVLG
B2: 2D11 (antibody, human IgG1, V domains shown)
VH: EVQLQESGPGLVKPSQTLSLTCTVSGGSITNSYYASSWIRQPPGKGLEWMGVIIYDGSTYYSPSLKSRTSISRDTSKNQFSLQLSSVTPEDTAVYYCARGLRVAGSYFTDFGTWGQGTQVTVSS
VL: SYELTQSPSVSVALRQAAKITCGGDNIASKHAHWYQQKPGQSPVLVIYKDSNRPSGIPERFSGSNSGNTATLTVSGAQAEDEADYYCQVWDSSANAAVFGGGTHLTVLG
B3: 3F11 (antibody, human IgG1, V domains shown)
VH: QVQLVESGGGLVQPGGSLRLSCAASGFTFSSYWMYWVRQAPGKGLEWVSAINTGGGSTYYADSVKGRFTISRDNAKNTLYLQMNSLKPEDTALYYCARGPGYSGSYIEGWAYWGQGTQVTVSS
VL: DIVMTQSPTSVTASVGEKVTINCKSSQSVVSGSNQKSYLNWYQQRPGQSPRLLIYHASTQESGIPDRFSGSGSTTDFTLTISSVQPEDAAVYYCQQAYNNPYSFGSGTRLEIK
B4: 2F12 (antibody, human IgG1, V domains shown)
VH: B3 VH with S105K
VL: B3 VL with T9R, T20F, G32E, K36R, H56Y, I64L, N99S, N100A
B5: 3E1 (antibody, human IgG1, V domains shown)
VH: B3 VH with Q1E, L4V, V5Q, S105K
VL: B3 VL with T9S, N34K, H56Y, N99S, N100A
B6: scFv C2 (scFv)
chain: QLQLVESGGGLQQPGGSLRLSCAASGFTFSSYAMGWVRQAPGKGLEWISIILNDGHRTYYTDSVKGRFTISRDNAKDTLSLQMNSLKPEDTAVYFCVKYVLNWAISDWGQGTQVTVSSQSVLTQPPSVSGSPGKTVTISCAGTSSDVGYGNYVSWYQQLPGMAPKLLIYNANKRASGITDRFSASKSGNTASLTISGLQSGDEAVYYCASYRYRDNAVFGGGTHLTVLG
B7: scFv C4 (scFv)
chain: QVQLQESGPGLVKPSQTLSLTCTVSGGSITTNYYYWSWIRQPPGKGLEWMGAIAYSGSTYYSPSLKSRTSISRDTSKNQFTLQLSSVTPEDTAVYYCARGYYSGSSLDFGSWGQGTQVTVSSLPVLTQPSAVSVSLGQTARITCQGGNVGSYYTSWYQQKPGQAPVLVIYKDSERPSGIPERFSGSSSGNTATLTVSGAQAEDEGDYYCQVWDSSAAVFGGGTHLTVLG
B8: scFv C10 (scFv)
chain: EVQLVQPGAELRNPGASVKVSCKASGYTFTAYYIDWVRQAPGQGLEWMGRIDPEDGGTTYEQKFQGRVTFTADTSTSTVYVELSSLRSEDTAVYYCARSTEIPTIRYYGMDYWGKGTPVTVSSASAAASGSYELTQSPSVSVALRQTAKITCGGDNIGSKSAQWYQQKPGQAPVLVIYADSRRPSGIPERFSGSNSGNTATLTISGAQAEDEADYYCQVWDSSANAAVFGGGTHLTVLG
B9: scFv C3 (scFv)
chain: QVQRQESGGGLVQPGGSLRLSCATSGFTFSNYYMSWVRQAPGKGPEWVSSIYSDLSTTYYADSVKGRFTISRDRAKNTLYLQMNSLKSEDTAVYYCARLSTVAGVDYWGKGTLVTVSSSYELTQSPSVSVALRQTAKITCGGNNIGSKSAQWYQQKPGQAPVLVIYADVRRPSEIPERFSGSNSGNTATLSVSGAQAEDEADYYCQVWDSSANAAVFGGGTHLTVLG
B10: scFv D2 (scFv)
chain: B9 chain with Q1E, V2L, R4L, Q5V, T135A, N144D, V169S, E174G, S191T, V192I
B11: scFv D3 (scFv)
chain: B9 chain with R4V, V105M, N144D, G146E, G158D, V169D, N186D, S191T, V192I
B12: scFv C1 (scFv)
chain: ELQVVESGGGLVPGGSLRLSCAASGFRVSVNAMSWVRQAPGKGLEWVSHIGSGGITGYADSVKGRFTISRDSAKNTLYLQMNSLKPEDTAVYYCTKRSSGYAWGQGTQVTVSSQAGLTQLPSVSGSPGQKITISCTGSSNNIGAGYSVQWFQQVPGSPPRLLIDGATNRDSGVPDRFSDSRSGSSASLTITGLQAEDEADYYCECYDNSLRGAVFGGGTHLTVLG
B13: scFv D1 (scFv)
chain: QVQLQESGGGLVQPGGSLRLSCAASGFTFSWYAMSWVRQGPGKGLEWVSGINGGGGSTSYEDSVKGRFTISRDNAKNTLYLEMNSLKPEDTAVYYCARYSDGYSGSYTYTDMDYWGKGTLVSVSSQAVVTQEPSLSVSPGGTVTLTCGLNSGSVTNGNYPGWYQQTPGQAPRALIYSTNSRHSGVPGRYSGSISGNKAALTITGAEPEDEADYYCALWQAAGTVVFGGGTHLTVLG
B14: scFv C5 (scFv)
chain: QLQLVESGGGLVEPGGSLRLSCAASGFTFSNYYMSWVRQAPGKGPEWVSSIYSDLSTTYYADSVKGRFTISRDRAKNTLYLQMNSLKSEDTAVYYCARLSTVAGVDYWGKGTLVTVSSSYELTQSPSVSVALRQTAKITCGGNNIGSKSAQWYQQKPGQAPVLVIYADSRRPSGIPERFSGSNSGNTATLTISGAQAEDEADYYCQVWDSSSNGAVFGGGTHLTVLG

T2 sequence (Q15858 269-339 limits assumed): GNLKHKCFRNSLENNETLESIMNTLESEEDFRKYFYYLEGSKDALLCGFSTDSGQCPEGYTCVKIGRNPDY

One assay addresses T1, hNav1.7-loopA3-llama Fc fusion. The assay can be described thus: Biacore SPR, antigen on CM5 chip, mAb in flow. As to the method:
(§1) In a further experiment, affinity of the loopA3-binding mAbs was determined using Biacore Surface Plasmon Resonance (SPR) analysis.
In general terms: Surface plasmon resonance follows binding to a sensor surface in real time, without labels.
One may read the Kd as the equilibrium constant for the complex coming apart. As usually defined, the koff is the first-order rate constant of dissociation. Lower therefore signals slow dissociation. B1: the dissociation constant Kd is 5100 pM and the off-rate (koff) was 0.00422 s⁻¹.

B2 returned a dissociation constant (Kd) of 37.5 pM and a dissociation rate constant (koff) of 1.26e-05 s⁻¹.

B3 gave a Kd of 25.3 pM and an off-rate (koff) of 1.56e-05 s⁻¹.

B4 gave a Kd of 24.1 pM and a koff of 1.92e-05 s⁻¹.

Turning to B5, the dissociation constant (Kd) worked out at 200 pM and the dissociation rate constant (koff) came to 0.00041 s⁻¹.

The next assay addresses T2, GST-tagged hNav1.7-loopA3 (human, UniProt Q15858 269-339).
T2 construct: monomeric GST-tagged peptide; also called hNav1.7-loopA3-GST; Nav1.7-loopA3-GST; not shown: GST tag
Nature of the assay: Biacore SPR, antigen on CM5 chip, mAb in flow. As to the method: as §1
Regarding B1, the dissociation constant Kd is 3350 pM and the dissociation rate constant (koff) is 0.00254 s⁻¹.

In the case of B2, binding was put at a Kd of 87.9 pM and the off-rate constant (koff) turned out to be 2.13e-05 s⁻¹.

Consider B3, for which the equilibrium dissociation constant (Kd) is 37.4 pM and the off-rate (koff) stood at 1.77e-05 s⁻¹.

Molecule B4 gave a dissociation constant Kd of 16.9 pM and an off-rate (koff) of 1.08e-05 s⁻¹.

For the molecule B5, the Kd was found to be 216 pM and the koff was determined as 0.000356 s⁻¹.

Another assay addresses T1, hNav1.7-loopA3-llama Fc fusion. Nature of the assay: ELISA, coated hNav1.7-loopA3-llama Fc, mAb titrated. The procedure:
mAbs originating from the loopA3-llama Fc immunization were assayed for their affinity for hNav1.7-loopA3. Therefore, a Maxisorp plate was coated with 10 ng/well of loopA3-llamaFc chimera and incubated overnight at 4° C. The next day, the plate was blocked with PBS+1% casein for 2 hours at RT. Subsequently a concentration gradient of antibodies was applied (range 0.25 pM-66 nM) for another hour. Antibody binding to loopA3 was detected using a HRP-conjugated anti-human Fc antibody (Abcam, Ab7499) (incubation 1 hour at RT, dilution 1/5000 in PBS+0.1% casein), followed by TMB addition and OD620 nm measurement. EC50 values were determined using GraphPad Prism software. For comparison purposes a known hNav1.7-loopA3 binding monoclonal antibody, UCB_932 (US2011/0135662), was tested.
Broadly, the EC50 is the concentration that produces a half-maximal response. A high value points to lower potency in that assay. Take B1: it took 874 pM to reach a half-maximal effect (EC50).

B2: a half-maximal response (EC50) required 71 pM.

B3 returned an EC50 of 72 pM.

Turning to B4, a half-maximal response (EC50) required 57 pM.

For B5, the EC50 worked out at 63 pM.

The target in a further assay is T3, Nt-GCGR-hFc (human, UniProt P47871 26-136).
T3 construct: domain: N-terminal domain; also called Nt-GCGR-Fc; recombinant N-terminal domain of GCGR; not shown: hFc
T3 sequence (P47871 26-136): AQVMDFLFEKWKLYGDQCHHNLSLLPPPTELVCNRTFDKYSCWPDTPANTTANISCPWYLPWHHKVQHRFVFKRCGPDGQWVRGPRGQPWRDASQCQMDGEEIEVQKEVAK
The assay can be described thus: scFv binding ELISA, periplasmic extract on coated Nt-GCGR.
For the molecule B6, the “ScFv binding ELISA signal” value was 0.465.

Consider B7, for which the “ScFv binding ELISA signal” value stood at 0.274.

On to B8, for which the “ScFv binding ELISA signal” value was 0.88.

With B9, the “ScFv binding ELISA signal” value was found to be 0.058.

As to B10, the “ScFv binding ELISA signal” value came to 0.52.

Turning to B11, the “ScFv binding ELISA signal” value is 0.987.

For B12, the “ScFv binding ELISA signal” value was 1.54.

With B13, the “ScFv binding ELISA signal” value was 0.1.

With B14, the “ScFv binding ELISA signal” value turned out to be 1.88.
